Bridges are numbered along the chain shown (N, C = ends). [ ]: non-standard residue; d: D form. S5 = C=CCCC[C@](C)(N)C(=O)O
What follows are binders tested against Syt2 (UniProt P29101 1-422, limits assumed) (assay: cell-based or functional assay).
Syt2, sequence (P29101 whole entry): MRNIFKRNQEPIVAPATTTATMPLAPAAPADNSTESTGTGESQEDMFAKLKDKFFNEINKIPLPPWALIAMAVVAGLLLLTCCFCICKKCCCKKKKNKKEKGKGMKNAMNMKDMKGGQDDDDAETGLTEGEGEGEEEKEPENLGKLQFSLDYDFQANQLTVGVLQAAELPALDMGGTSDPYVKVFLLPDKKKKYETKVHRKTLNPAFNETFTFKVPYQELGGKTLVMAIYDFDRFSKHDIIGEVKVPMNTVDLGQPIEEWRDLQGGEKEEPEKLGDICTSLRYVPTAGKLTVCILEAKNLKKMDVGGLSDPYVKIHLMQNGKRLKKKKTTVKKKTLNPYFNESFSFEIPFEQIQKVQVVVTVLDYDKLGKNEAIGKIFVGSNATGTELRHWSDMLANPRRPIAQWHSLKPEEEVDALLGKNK

| Binder | inhibition of Ca2+-independent fusion probability, single vesicle content mixing with airway epithelial SNAREs and Syt2 [%] | inhibition of Ca2+-triggered cumulative fusion probability, single vesicle content mixing with airway epithelial SNAREs and Syt2 [%] |
| --- | --- | --- |
| Ac-SKDA[S5]IRT[S5]VM[S5]DEQ[S5]EQL-NH2 (staple 12-16, 5-9; SMILES CC[C@H](C)[C@@H]1NC(=O)[C@@](C)(NC(=O)[C@H](C)NC(=O)[C@H](CC(=O)O)NC(=O)[C@H](CCCCN)NC(=O)[C@H](CO)NC(C)=O)CCCC=CCCC[C@@](C)(C(=O)N[C@H](C(=O)N[C@@H](CCSC)C(=O)N[C@@]2(C)CCCC=CCCC[C@@](C)(C(=O)N[C@@H](CCC(=O)O)C(=O)N[C@@H](CCC(N)=O)C(=O)N[C@@H](CC(C)C)C(N)=O)NC(=O)[C@H](CCC(N)=O)NC(=O)[C@H](CCC(=O)O)NC(=O)[C@H](CC(=O)O)NC2=O)C(C)C)NC(=O)[C@H]([C@@H](C)O)NC(=O)[C@H](CCCNC(=N)N)NC1=O) [SP4] | ≤ 40 | ≤ 70 |
| Ac-SKD[S5]GIR[S5]LVMLDE[S5]GEQ[S5]DR-NH2 (staple 15-19, 4-8; SMILES CC[C@H](C)[C@@H]1NC(=O)CNC(=O)[C@@](C)(NC(=O)[C@H](CC(=O)O)NC(=O)[C@H](CCCCN)NC(=O)[C@H](CO)NC(C)=O)CCCC=CCCC[C@@](C)(C(=O)N[C@@H](CC(C)C)C(=O)N[C@H](C(=O)N[C@@H](CCSC)C(=O)N[C@@H](CC(C)C)C(=O)N[C@@H](CC(=O)O)C(=O)N[C@@H](CCC(=O)O)C(=O)N[C@@]2(C)CCCC=CCCC[C@@](C)(C(=O)N[C@@H](CC(=O)O)C(=O)N[C@@H](CCCNC(=N)N)C(N)=O)NC(=O)[C@H](CCC(N)=O)NC(=O)[C@H](CCC(=O)O)NC(=O)CNC2=O)C(C)C)NC(=O)[C@H](CCCNC(=N)N)NC1=O) [SP1] | ≤ 40 | ≤ 70 |
| Ac-EE[S5]KDA[S5]IR[S5]LVM[S5]DEQC-NH2 (staple 10-14, 3-7; SMILES CC[C@H](C)[C@H](NC(=O)[C@]1(C)CCCC=CCCC[C@](C)(NC(=O)[C@H](CCC(=O)O)NC(=O)[C@H](CCC(=O)O)NC(C)=O)C(=O)N[C@@H](CCCCN)C(=O)N[C@@H](CC(=O)O)C(=O)N[C@@H](C)C(=O)N1)C(=O)N[C@@H](CCCNC(=N)N)C(=O)N[C@@]1(C)CCCC=CCCC[C@@](C)(C(=O)N[C@@H](CC(=O)O)C(=O)N[C@@H](CCC(=O)O)C(=O)N[C@@H](CCC(N)=O)C(=O)N[C@@H](CS)C(N)=O)NC(=O)[C@H](CCSC)NC(=O)[C@H](C(C)C)NC(=O)[C@H](CC(C)C)NC1=O) [SP9] | ≤ 40 | ≤ 70 |
| Ac-SKD[S5]GIR[S5]LV[S5]LDE[S5]GEQL-NH2 (staple 11-15, 4-8; SMILES CC[C@H](C)[C@@H]1NC(=O)CNC(=O)[C@@](C)(NC(=O)[C@H](CC(=O)O)NC(=O)[C@H](CCCCN)NC(=O)[C@H](CO)NC(C)=O)CCCC=CCCC[C@@](C)(C(=O)N[C@@H](CC(C)C)C(=O)N[C@H](C(=O)N[C@@]2(C)CCCC=CCCC[C@@](C)(C(=O)NCC(=O)N[C@@H](CCC(=O)O)C(=O)N[C@@H](CCC(N)=O)C(=O)N[C@@H](CC(C)C)C(N)=O)NC(=O)[C@H](CCC(=O)O)NC(=O)[C@H](CC(=O)O)NC(=O)[C@H](CC(C)C)NC2=O)C(C)C)NC(=O)[C@H](CCCNC(=N)N)NC1=O) [SP10] | ≤ 40 | ≤ 70 |

Source: US20250163122A1, “COMPOSITIONS AND METHODS FOR TREATING AIRWAY MUCUS DYSFUNCTION” (BOARD OF REGENTS, THE UNIVERSITY OF TEXAS SYSTEM, priority 2022, published 2025)
